From article PMC4633990 come the findings set out here.

Assay [1] has as its target HIV-1 Env on HIV-1 IIIb-infected CEM-NKr-CCR5 cells (CEM-IIIb) (HIV-1 IIIb) (UniProt P04578).
The target in assay [2] is HIV-1 Env of strain AC10.29 (clade B) on pseudovirus AC10.29.SG3 (HIV-1 AC10.29 (clade B)).
The target of assay [3] is HIV-1 Env of strain ZM53.12 (clade C) on pseudovirus ZM53.12.SG3 (HIV-1 ZM53.12 (clade C)).

With “VRC07-αCD3 bispecific immunomodulatory protein (bispecific antibody)”, the IFN-γ intracellular cytokine staining of human CD4 T cells co-cultured with HIV-infected CEM cells and 0.5 μg ml^−1 protein, relative to unstimulated CD4 T cells (1.4-fold in the absence of HIV-1) in assay [1] amounted to 9 fold. In assay [2], this substance yielded an IC50 of neutralisation of Env-pseudotyped virus AC10.29.SG3 (clade B), TZM-bl target cells, luciferase of 0.346 µg/mL. For the same substance, the IC50 of neutralisation of Env-pseudotyped virus ZM53.12.SG3 (clade C), TZM-bl target cells, luciferase in assay [3] was 0.24 µg/mL.
